Reference: patent publication US20250145729A1 (DENALI THERAPEUTICS, published 2025)
Each block holds one binder with its values, some of them ahead of it.

What was measured:
[1] = target: T1, circularly permuted human TfR apical domain (human, biotin on the Avi tag); experiment: SPR
T1 construct: a linker between the two segments is not described; also called huTfR apical domain; not shown: Avi tag and PreScission site left after Ulp1 cleavage
T1 chain: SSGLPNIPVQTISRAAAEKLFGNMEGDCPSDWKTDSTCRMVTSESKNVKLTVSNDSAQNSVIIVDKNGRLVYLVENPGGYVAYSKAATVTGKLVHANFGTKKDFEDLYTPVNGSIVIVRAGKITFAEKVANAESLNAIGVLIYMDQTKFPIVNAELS
Protocol: (§1) Biacore™ Series S CM5 sensor chips were immobilized with anti-human Fab (GE Healthcare, 28958325). Molecules were captured on each flow cell and serial 3-fold dilutions of human TfR apical domain (2, 0.67, 0.22, 0.074, 0.025, and 0 μM) and cynomologous TfR apical domain (4, 1.3, 0.44, 0.15, 0.05, and 0 μM) were injected at a flow rate of 30 μL/min using single cycle kinetics method. Each sample was analyzed with a 60-second association and a 3-minute dissociation. After each cycle, the chip was regenerated using 10 mM glycine-HCl (pH 2.1) for 30 seconds at 50 μL/min. Binding response was corrected by subtracting the RU from a reference flow cell. A 1:1 Langmuir model of simultaneous fitting of kₒₙ and koff was used for kinetics analysis using Biacore™ 8K Evaluation Software. Table 32A below summarizes the binding affinities of selected clones for human and cynomolgus TfR apical domains.
(§2) The phage library was panned against biotinylated human TfR apical domain immobilized to magnetic streptavidin beads. Four rounds of phage panning were performed and enriched clones were sequenced. Unique hits were cloned onto an anti-BACE1 hIgG1 monoclonal antibody containing the “LALA” mutations, expressed in HEK293 cells, and purified by protein A chromatography. Affinity to human and cyno TfR apical domain was measured by SPR. Clones were evaluated for TfR-specific cell binding (FIGS. 43A and 43B).

[2] = target: T2, circularly permuted cyno TfR apical domain (cynomolgus monkey, biotin on the Avi tag); experiment: SPR
T2 construct: a linker between the two segments is not described; also called cyTfR apical domain; not shown: Avi tag and PreScission site left after Ulp1 cleavage
T2 chain: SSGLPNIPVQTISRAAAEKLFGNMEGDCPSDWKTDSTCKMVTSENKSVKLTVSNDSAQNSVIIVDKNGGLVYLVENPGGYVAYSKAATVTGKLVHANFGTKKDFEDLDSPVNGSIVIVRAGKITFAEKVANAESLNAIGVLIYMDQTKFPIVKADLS
Protocol: as §1, §2

[3] = target: T3, human TfR on HEK293T cells (human, UniProt P02786 1-760); experiment: cell uptake at 37 C into HEK293T human TfR positive cells, anti-human IgG staining, imaging (corrected spot intensity)
T3 construct: also called huTfR expressing cells; human TfR-positive cells
Protocol: (§3) HEK293T, CHO:cyTfR, and CHO cells were plated at 40,000 cells/well of 96-well plates in standard growth media (DMEM (Gibco™ 11995073)+10% FBS (VWR 89510⁻¹⁸⁸)+1×Pen/Strep (Gibco 15140122)). Approximately 24 hours later, molecules were diluted into standard growth media warmed to 37° C. Old media was removed from the cells, and the diluted molecules were added to the cells. Cells were incubated at 37° C. for 45 minutes. Cells were then washed with PBS and then fixed for 10 minutes in 4% PFA (Electron Microscopy Sciences 15714-S). Cells were washed with PBS and then blocked with 5% BSA, 0.3% TritonX100 in PBS for 30 minutes. […] Cells were washed with PBS, imaged on an Opera Phenix, and images were analyzed with Harmony software.

[4] = target: T4, cynomolgus monkey TfR on CHO cells (cynomolgus monkey, UniProt Q5RDH6 1-760 (Pongo abelii entry)); experiment: cell uptake at 37 C into CHO cells expressing cynomolgus monkey TfR, anti-human IgG staining, imaging (corrected spot intensity)
T4 construct: also called CHO:cyTfR; cyTfR expressing cells
T4 chain: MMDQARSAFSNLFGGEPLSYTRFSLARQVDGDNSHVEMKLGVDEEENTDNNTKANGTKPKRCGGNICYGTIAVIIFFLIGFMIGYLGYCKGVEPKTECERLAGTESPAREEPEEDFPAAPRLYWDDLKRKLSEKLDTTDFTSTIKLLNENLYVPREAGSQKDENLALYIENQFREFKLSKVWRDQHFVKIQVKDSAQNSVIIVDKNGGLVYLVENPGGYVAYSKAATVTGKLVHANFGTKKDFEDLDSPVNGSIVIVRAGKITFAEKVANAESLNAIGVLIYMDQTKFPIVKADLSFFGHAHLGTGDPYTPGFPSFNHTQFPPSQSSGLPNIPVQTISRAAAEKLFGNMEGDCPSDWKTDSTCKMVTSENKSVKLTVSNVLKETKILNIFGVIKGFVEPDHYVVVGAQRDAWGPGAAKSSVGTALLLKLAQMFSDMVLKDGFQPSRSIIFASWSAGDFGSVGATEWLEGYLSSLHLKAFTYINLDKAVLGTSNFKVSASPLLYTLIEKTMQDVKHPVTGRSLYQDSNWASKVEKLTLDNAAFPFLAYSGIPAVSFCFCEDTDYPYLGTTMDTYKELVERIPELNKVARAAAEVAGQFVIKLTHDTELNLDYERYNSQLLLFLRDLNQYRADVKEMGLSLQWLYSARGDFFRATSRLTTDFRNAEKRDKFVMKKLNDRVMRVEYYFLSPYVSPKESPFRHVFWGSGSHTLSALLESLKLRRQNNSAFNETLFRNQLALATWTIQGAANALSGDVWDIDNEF
Protocol: as §3

TfR [5] = target: T5, TfR (Homo sapiens (Human), UniProt P02786 121-760, limits assumed); experiment: Biacore, control sample kept in PBS
T5 construct: also called transferrin receptor
Protocol: (§4) Clone 6.5.11.5.42.2, with and without LS mutations, was assessed for low pH stability during developability assessment. The tested proteins are bivalent Fc-Fab fusion polypeptides comprising an anti-HER2 Fab domain linked to two Fc polypeptides each having the sequence of the identified clone and LALA mutations, with LS mutations or without LS mutations. An Fc control containing the anti-HER2 Fab domain linked to an Fc domain with LALA mutations and without TfR-binding sites was included for comparison.
(§5) Aliquots (100 μL) of each clone were added to wells of a 96-well plate containing 6 μL of 5% (v/v) acetic acid and mixed well. The plate was sealed and incubated at room temperature for about three (3) hours. Subsequently, 35 μL of 1 M Tris HCl (pH 7.5) was added to the samples and mixed well. The plate was sealed once again and incubated at room temperature for 24 hours. Control condition was storage in 1× PBS without any change in pH during incubation. The samples were then analyzed by Biacore for binding affinity and by size exclusion chromatography to detect intact fusion protein. FIG. 22 and Table 26 provide the results of the analyses.

TfR [6] = target: T5, TfR; experiment: Biacore, after low pH hold and neutralisation
Protocol: as §4, §5

human CD98hc [7] = target: T6, human CD98hc (human, UniProt P08195 109-529); experiment: affinity as listed in study design table; method not given there
T6 construct: also called huCD98hc; CD98 heavy chain
T6 sequence: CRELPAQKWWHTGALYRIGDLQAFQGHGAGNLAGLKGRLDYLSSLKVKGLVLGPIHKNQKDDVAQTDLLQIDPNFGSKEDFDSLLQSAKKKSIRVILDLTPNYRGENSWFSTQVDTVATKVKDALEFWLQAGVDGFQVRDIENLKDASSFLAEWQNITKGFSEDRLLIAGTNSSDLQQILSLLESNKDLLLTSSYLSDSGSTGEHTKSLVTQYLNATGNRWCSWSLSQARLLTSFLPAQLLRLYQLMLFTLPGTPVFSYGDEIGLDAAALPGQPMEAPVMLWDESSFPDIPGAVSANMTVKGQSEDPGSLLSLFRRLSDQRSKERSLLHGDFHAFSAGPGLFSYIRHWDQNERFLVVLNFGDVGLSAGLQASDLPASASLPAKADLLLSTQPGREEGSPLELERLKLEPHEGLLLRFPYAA

human CD98hc [8] = target: T6, human CD98hc; experiment: as above; remark: listed apart in the source
human CD98hc [9] = target: T6, human CD98hc; experiment: as above; remark: listed apart in the source
human CD98hc [10] = target: T6, human CD98hc; experiment: affinity as listed in study design table; method not given there; Bivalent, NBF Fabs

Kd [1]: 0.48 µM
Kd [2]: 1.8 µM
binding result [3]: binds
binding result [4]: binds
B1: Clone 1 with LALA (Fc fusion)
chain: APEAAGGPSVFLFPPKPKDTLMISRTPEVTCVVVDVSHEDPEVKFNWYVDGVEVHNAKTKPREEQYNSTYRVVSVLTVLHQDWLNGKEYKCKVSNKALPAPIEKTISKAKGQPREPQVYTLPPSRDELTKNQVSLTCLVKGFYPSDIAVKWGSEVAPENNYKTTPPVLDSDGSFFLYSKLTVDKSRWQQGNIFACTVMHEALHNHYTLKMLSLSPGK
notes: Fc part only

Kd [1]: 1.5 µM
Kd [2]: 6 µM
binding result [3]: binds
binding result [4]: binds
B2: Clone 3 with LALA (Fc fusion)
chain: APEAAGGPSVFLFPPKPKDTLMISRTPEVTCVVVDVSHEDPEVKFNWYVDGVEVHNAKTKPREEQYNSTYRVVSVLTVLHQDWLNGKEYKCKVSNKALPAPIEKTISKAKGQPREPQVYTLPPSRDELTKNQVSLTCLVKGFYPSDIAVLWGSAVAPENNYKTTPPVLDSDGSFFLYSKLTVDKSRWQQGNVFACTVMHEALHNHYTVKGLSLSPGK
notes: Fc part only

Kd (TfR [5]): 1.17 µM
Kd (TfR [6]): 1.18 µM
B3: 42.2 LALA (bivalent clone 6.5.11.5.42.2 with LALA, anti-HER2 Fab) (Fc fusion)
chain: APEAAGGPSVFLFPPKPKDTLMISRTPEVTCVVVDVSHEDPEVKFNWYVDGVEVHNAKTKPREEQYNSTYRVVSVLTVLHQDWLNGKEYKCKVSNKALPAPIEKTISKAKGQPREPQVYTLPPSRDELTKNQVSLTCLVKGFYPSDIAVEWFSDGSKETNYKTTPPVLDSDGSFFLYSKLTVDKSRWQQGNLFACEVMHEALHNHYTYKLLSLSPGK

Kd (TfR [5]): 1.7 µM
Kd (TfR [6]): 1.81 µM
B4: 42.2 LALA LS (bivalent clone 6.5.11.5.42.2 with LALA and LS, anti-HER2 Fab) (Fc fusion)
chain: APEAAGGPSVFLFPPKPKDTLMISRTPEVTCVVVDVSHEDPEVKFNWYVDGVEVHNAKTKPREEQYNSTYRVVSVLTVLHQDWLNGKEYKCKVSNKALPAPIEKTISKAKGQPREPQVYTLPPSRDELTKNQVSLTCLVKGFYPSDIAVEWFSDGSKETNYKTTPPVLDSDGSFFLYSKLTVDKSRWQQGNLFACEVLHEALHSHYTYKLLSLSPGK

Kd (human CD98hc [7]): 0.1 to 0.2 µM
B5: Clone 1: LLB2-10-8 bivalent, BACE1 Fabs (Fc fusion)
chain: APELLGGPSVFLFPPKPKDTLMISRTPEVTCVVVDVSHEDPEVKFNWYVDGVEVHNAKTKPREEQYNSTYRVVSVLTVLHQDWLNGKEYKCKVSNKALPAPIEKTISKAKGQPREPQVYTLPPSRDELTKNQVSLTCLVKGFYPSDIAVLWNSRFVLENNYKTTPPVLDSDGSFFLYSKLTVDKSRWQQGEIFACNVYHEALHNHYTFKNLALSPGK
notes: bivalent; effector positive

Kd (human CD98hc [8]): 0.1 to 0.2 µM
Kd (human CD98hc [9]): 0.1 to 0.2 µM
B6: Clone 26: LLB2-10-8 bivalent, non-binding Fabs (Fc fusion)
chain: APELLGGPSVFLFPPKPKDTLMISRTPEVTCVVVDVSHEDPEVKFNWYVDGVEVHNAKTKPREEQYNSTYRVVSVLTVLHQDWLNGKEYKCKVSNKALPAPIEKTISKAKGQPREPQVYTLPPSRDELTKNQVSLTCLVKGFYPSDIAVLWNSRFVLENNYKTTPPVLDSDGSFFLYSKLTVDKSRWQQGEIFACNVYHEALHNHYTFKNLALSPGK
notes: bivalent; effector positive

Kd (human CD98hc [8]): 0.39 µM
B7: Clone 28: LLB2-37 bivalent, non-binding Fabs (Fc fusion)
chain: APELLGGPSVFLFPPKPKDTLMISRTPEVTCVVVDVSHEDPEVKFNWYVDGVEVHNAKTKPREEQYNSTYRVVSVLTVLHQDWLNGKEYKCKVSNKALPAPIEKTISKAKGQPREPQVYTLPPSRDELTKNQVSLTCLVKGFYPSDIAVLWNSQFHLENNYKTTPPVLDSDGSFFLYSKLTVDKSRWQQGNIFACNVYHEALHNHYTFKNLLLSPGK
notes: bivalent; effector positive

Kd (human CD98hc [10]): 1 µM
B8: Clone 4: LLB1-3 D380E bivalent, non-binding Fabs (Fc fusion)
chain: APELLGGPSVFLFPPKPKDTLMISRTPEVTCVVVDVSHEDPEVKFNWYVDGVEVHNAKTKPREEQYNSTYRVVSVLTVLHQDWLNGKEYKCKVSNKALPAPIEKTISKAKGQPREPQVYTLPPSRDELTKNQVSLTCLVKGFYPSDIAVEWRSYKPYENNYKTTPPVLDSDGSFFLYSKLTVDKSRWQQGNIFVCDVMHEALHNHYTIKKLSLSPGK
notes: bivalent; effector positive
